The values that follow come from IntAct's records for PubMed 18996118.

The labels stand for the following.
B1: Membrane protein insertase YidC (Escherichia coli (strain K12)), P25714 (parent)
chain: MDSQRNLLVIALLFVSFMIWQAWEQDKNPQPQAQQTTQTTTTAAGSAADQGVPASGQGKLISVKTDVLDLTINTRGGDVEQALLPAYPKELNSTQPFQLLETSPQFIYQAQSGLTGRDGPDNPANGPRPLYNVEKDAYVLAEGQNELQVPMTYTDAAGNTFTKTFVLKRGDYAVNVNYNVQNAGEKPLEISSFGQLKQSITLPPHLDTGSSNFALHTFRGAAYSTPDEKYEKYKFDTIADNENLNISSKGGWVAMLQQYFATAWIPHNDGTNNFYTANLGNGIAAIGYKSQPVLVQPGQTGAMNSTLWVGPEIQDKMAAVAPHLDLTVDYGWLWFISQPLFKLLKWIHSFVGNWGFSIIIITFIVRGIMYPLTKAQYTSMAKMRMLQPKIQAMRERLGDDKQRISQEMMALYKAEKVNPLGGCFPLLIQMPIFLALYYMLMGSVELRQAPFALWIHDLSAQDPYYILPILMGVTMFFIQKMSPTTVTDPMQQKIMTFMPVIFTVFFLWFPSGLVLYYIVSNLVTIIQQQLIYRGLEKRGLHSREKKKS
partner: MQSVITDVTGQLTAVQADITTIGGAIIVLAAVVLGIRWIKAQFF
B2: Capsid protein (Pseudomonas phage Pf3), P03623 (parent)
chain: B1 partner
partner: B1 chain

The variants in one test derive from B1. Conditions: with capsd_bppf3 VIII, P03623.
S16C: the “effect of a mutation on the interaction” value was “increasing interaction”.

The variants in the next test derive from B1. The following applies: with capsd_bppf3 VIII.
As for F17C, the “effect of a mutation on the interaction” value is “increasing interaction”.

Another test covers variants of B1. Conditions: with capsd_bppf3 VIII. This is another data set of the same source.
Take M430C: the “effect of a mutation on the interaction” value is “increasing interaction”.

The variants in the next test derive from B2. Conditions: with yidc_ecoli yidC.
Turning to V28C, the “effect of a mutation on the interaction” value is “increasing interaction”.

In another test the parent is B2. The following applies: with yidc_ecoli yidC, P25714.
In the case of I27C, the “effect of a mutation on the interaction” value is “increasing interaction”.
